Consider 2 substances from paper PMC8794255, “Small molecule inhibitor of Igf2bp1 represses Kras and a pro-oncogenic phenotype in cancer cells” (RNA Biology, 2021).

Data set [1] has as its target Igf2bp1 (human) (UniProt Q9NZI8). The data set is described as follows: competition. To be noted: MST/EMSA: 10 mM Tris pH 7.5, 100 mM NaCl, 0.1 mM EDTA, IGEPAL, tRNA, heparin, 0.5-2 mM DTT, room temperature (MST protein in PBST mixed 1:1); FP: 10 mM Tris pH …. A general note: In EMSA bound probe runs differently from free probe, usually more slowly.
Data set [2] has as its system Igf2bp1 KH34 (human). The data set is described as follows: MST. To be noted: MST/EMSA: 10 mM Tris pH 7.5, 100 mM NaCl, 0.1 mM EDTA, IGEPAL, tRNA, heparin, 0.5-2 mM DTT, room temperature (MST protein in PBST mixed 1:1); FP: 10 mM Tris pH ….
Data set [3] deals with Igf2bp1 (human). The data set is described as follows: MST. As to conditions: MST/EMSA: 10 mM Tris pH 7.5, 100 mM NaCl, 0.1 mM EDTA, IGEPAL, tRNA, heparin, 0.5-2 mM DTT, room temperature (MST protein in PBST mixed 1:1), FP: 10 mM Tris pH ….

Sequence of Igf2bp1 (human) (UniProt Q9NZI8) (Q9NZI8 whole entry): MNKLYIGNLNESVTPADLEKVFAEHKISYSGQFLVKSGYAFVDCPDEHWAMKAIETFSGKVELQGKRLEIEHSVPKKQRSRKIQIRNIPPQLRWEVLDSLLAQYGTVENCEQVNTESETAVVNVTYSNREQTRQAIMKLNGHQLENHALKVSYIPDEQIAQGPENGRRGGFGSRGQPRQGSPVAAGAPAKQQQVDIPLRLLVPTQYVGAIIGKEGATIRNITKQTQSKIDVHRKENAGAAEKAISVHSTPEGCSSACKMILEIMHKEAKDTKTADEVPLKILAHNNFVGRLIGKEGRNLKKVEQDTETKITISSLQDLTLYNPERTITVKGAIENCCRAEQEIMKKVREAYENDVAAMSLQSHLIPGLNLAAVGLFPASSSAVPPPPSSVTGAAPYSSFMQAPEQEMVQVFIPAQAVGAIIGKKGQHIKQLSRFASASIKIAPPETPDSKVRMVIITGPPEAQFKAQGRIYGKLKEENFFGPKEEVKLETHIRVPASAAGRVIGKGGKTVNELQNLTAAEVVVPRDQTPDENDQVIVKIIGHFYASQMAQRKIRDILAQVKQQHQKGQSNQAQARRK

As to “GGGUGAGGAGUACAGUGCAAUGAGGGACCAGUACAUGAGGACUGGGGAGGGCUUUCUUUGUGUAUUUGCCAUAAAUAAUACUAAAUCAUUUGAAGAUAUUCACCAUUAUAGAGAACAAAUUAAAAGAGUUAAGGACUCUGAAGAUGUACCUAUGGUCCUAGUAGGAAAUAAAUGUGAUUUGCCUUCUAGAACAGUAGACACAA [Kras 2 RNA]”, the binding result in data set [1] is reported as “binds more weakly”.

A word on the Kd: it is the equilibrium constant for the complex coming apart. Read a low Kd as a tighter complex. For the substance Kras 6 RNA, the Kd in data set [2] came to 200 nM; in data set [3] (50 uM 7773), 63 nM; in data set [3] (100 uM 7773), 120 nM; in data set [3], 20 nM; in data set [3] (no compound), 56 nM.
